Article PMC8927147, “Global profiling of regulatory elements in the histone benzoylation pathway” (Nature Communications, 2022)

Key:
H3K27bz peptide = biological target: T1, H3K27bz peptide; assay: ITC; settings: chain shown with the change
T1 chain: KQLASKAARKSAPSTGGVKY

H3K14bz peptide = biological target: T2, H3K14bz peptide; assay: ITC; settings: chain shown with the change
T2 chain: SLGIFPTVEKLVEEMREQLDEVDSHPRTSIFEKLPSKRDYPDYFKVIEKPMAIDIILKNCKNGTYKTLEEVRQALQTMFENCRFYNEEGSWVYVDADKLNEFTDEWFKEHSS

B1: Sas5_(YEATS), Q99314 K64P (protein)
chain: DHSIEVTFRVKTQQVIIPEQNIRGNELPLRRWQMELLMLDATGKEVEPTILSKCIYHLHSSFPQPKRRLNSLPFFIKETGWGEFNLKIECFFIGNAGKFSIEHDLTFEDDAYAVDYTVDVPHEFSHLNSELSKYFDLP
B1 gave a Kd (H3K27bz peptide) of 31.1 µM.

B2: Sas5_(YEATS), Q99314 L30H (protein)
chain: DHSIEVTFRVKTQQVIIPEQNIRGNELPHRRWQMELLMLDATGKEVEPTILSKCIYHLHSSFKQPKRRLNSLPFFIKETGWGEFNLKIECFFIGNAGKFSIEHDLTFEDDAYAVDYTVDVPHEFSHLNSELSKYFDLP
B2 was tested, and the Kd (H3K27bz peptide) was 369 µM.

TARKSTGGKAPRKQLASY [Sth1BD, P32597 A1329C] was tested, and the Kd (H3K14bz peptide) was 187 µM.
